Source: patent US20170015742A1 (published 2017)
Substitutions are numbered along the chain they refer to.

B1: CL-33675_GS_9E10.6 (bispecific antibody, human IgG1, kappa, L234A L235A)
heavy: EVTLRESGPALVKPTQTLTLTCTFSGFSLSTYGMGVGWIRQPPGKALEWLANIWWDDDKYYNPSLKNRLTISKDTSKNQVVLTMTNMDPVDTATYYCARIESSGPKYSFDYWGQGTMVTVSSGGGGSGGGGSEVQLVQSGAEVKKPGSSVKVSCKASGYTFTNYGMYWVRQAPGQGLEWMGWIDTETGRPTYADDFKGRFTFTADKSTSTAYMELSSLRSEDTAVYYCARWSGDTTGIRGPWFAYWGQGTLVTVSSASTKGPSVFPLAPSSKSTSGGTAALGCLVKDYFPEPVTVSWNSGALTSGVHTFPAVLQSSGLYSLSSVVTVPSSSLGTQTYICNVNHKPSNTKVDKKVEPKSCDKTHTCPPCPAPEAAGGPSVFLFPPKPKDTLMISRTPEVTCVVVDVSHEDPEVKFNWYVDGVEVHNAKTKPREEQYNSTYRVVSVLTVLHQDWLNGKEYKCKVSNKALPAPIEKTISKAKGQPREPQVYTLPPSREEMTKNQVSLTCLVKGFYPSDIAVEWESNGQPENNYKTTPPVLDSDGSFFLYSKLTVDKSRWQQGNVFSCSVMHEALHNAYTQKSLSLSPGK
light: EIVLTQSPGTLSLSPGERATLSCRASSGSIWYSFVSWYQQKPGQAPRLLIYADDQRASGIPDRFSGSGSGTDFTLTISRLEPEDFAVYYCQSYGINIDVVFGGGTKVEIKGGSGGGGSGGDIRMTQSPSSLSASVGDRVTITCLASEDIYSDLAWYQQKPGKSPKLLIYNANGLQNGVPSRFSGSGSGTDYTLTISSLQPEDVATYFCQQYNYFPGTFGQGTKLEIKRTVAAPSVFIFPPSDEQLKSGTASVVCLLNNFYPREAKVQWKVDNALQSGNSQESVTEQDSKDSTYSLSSTLTLSKADYEKHKVYACEVTHQGLSSPVTKSFNRGEC
B2: CL-33675_GS_1E3.4 (bispecific antibody, human IgG1, kappa, L234A L235A)
heavy: EVTLRESGPALVKPTQTLTLTCTFSGFSLSTYGMGVGWIRQPPGKALEWLANIWWDDDKYYNPSLKNRLTISKDTSKNQVVLTMTNMDPVDTATYYCARIESSGPKYSFDYWGQGTMVTVSSGGGGSGGGGSEIQLVQSGSELKKPGASVKVSCKASGYPFTNSGMYWVKQAPGQGLEYMGWINTEAGKPTYADDFKGRFVFSLDTSVSTAYLQISSLKAEDTAVYFCARWGYISDNSYGWFDYWGQGTLVTVSSASTKGPSVFPLAPSSKSTSGGTAALGCLVKDYFPEPVTVSWNSGALTSGVHTFPAVLQSSGLYSLSSVVTVPSSSLGTQTYICNVNHKPSNTKVDKKVEPKSCDKTHTCPPCPAPEAAGGPSVFLFPPKPKDTLMISRTPEVTCVVVDVSHEDPEVKFNWYVDGVEVHNAKTKPREEQYNSTYRVVSVLTVLHQDWLNGKEYKCKVSNKALPAPIEKTISKAKGQPREPQVYTLPPSREEMTKNQVSLTCLVKGFYPSDIAVEWESNGQPENNYKTTPPVLDSDGSFFLYSKLTVDKSRWQQGNVFSCSVMHEALHNAYTQKSLSLSPGK
light: EIVLTQSPGTLSLSPGERATLSCRASSGSIWYSFVSWYQQKPGQAPRLLIYADDQRASGIPDRFSGSGSGTDFTLTISRLEPEDFAVYYCQSYGINIDVVFGGGTKVEIKGGSGGGGSGGATQLTQSPSSLSASVGDRVTISCRASEGVYSYMHWYQQKPGKQPKLLIYKASNLASGVPSRFSGSGSGTDFTLTISSLQPEDFATYFCHQNWNDPLTFGQGTKLEIKRTVAAPSVFIFPPSDEQLKSGTASVVCLLNNFYPREAKVQWKVDNALQSGNSQESVTEQDSKDSTYSLSSTLTLSKADYEKHKVYACEVTHQGLSSPVTKSFNRGEC
B3: 9E8.4_GS_9E10.1 (bispecific antibody, human IgG1, kappa, L234A L235A)
heavy: EVTLRESGPALVKPTQTLTLTCTFSGFSLSTYGMGVGWIRQPPGKALEWLANIWWDDDKYYNPSLKNRLTISKDTSKNQVVLTMTNMDPVDTATYYCARIESIGTTYSFDYWGQGTMVTVSSGGGGSGGGGSEIQLVQSGSELKKPGASVKVSCKASGYTFTNYGMYWVKQAPGQGLEYMGWIDTETGRPTYADDFKGRFVFSLDTSVSTAYLQISSLKAEDTAVYFCARWSGDTTGIRGPWFAYWGQGTLVTVSSASTKGPSVFPLAPSSKSTSGGTAALGCLVKDYFPEPVTVSWNSGALTSGVHTFPAVLQSSGLYSLSSVVTVPSSSLGTQTYICNVNHKPSNTKVDKKVEPKSCDKTHTCPPCPAPEAAGGPSVFLFPPKPKDTLMISRTPEVTCVVVDVSHEDPEVKFNWYVDGVEVHNAKTKPREEQYNSTYRVVSVLTVLHQDWLNGKEYKCKVSNKALPAPIEKTISKAKGQPREPQVYTLPPSREEMTKNQVSLTCLVKGFYPSDIAVEWESNGQPENNYKTTPPVLDSDGSFFLYSKLTVDKSRWQQGNVFSCSVMHEALHNAYTQKSLSLSPGK
light: EFVLTQSPGTLSLSPGERATLSCERSSGDIGDSYVSWYQQKPGQAPRLVIYADDQRPSGIPDRFSGSGSGTDFTLTISRLEPEDFAVYYCQSYDINIDIVFGGGTKVEIKGGSGGGGSGGDIRMTQSPSSLSASVGDRVTIECLASEDIYSDLAWYQQKPGKSPKLLIYNANGLQNGVPSRFSGSGSGTDYSLTISSLQPEDVATYFCQQYNYFPGTFGQGTKLEIKRTVAAPSVFIFPPSDEQLKSGTASVVCLLNNFYPREAKVQWKVDNALQSGNSQESVTEQDSKDSTYSLSSTLTLSKADYEKHKVYACEVTHQGLSSPVTKSFNRGEC
B4: 9E8.4_GS_9E10.6 (bispecific antibody, human IgG1, kappa, L234A L235A)
heavy: B1 heavy with S103I, P105T, K106T
light: B3 light with E142T, S192T
B5: 9E8.4_GS_1B10.1 (bispecific antibody, human IgG1, kappa, L234A L235A)
heavy: EVTLRESGPALVKPTQTLTLTCTFSGFSLSTYGMGVGWIRQPPGKALEWLANIWWDDDKYYNPSLKNRLTISKDTSKNQVVLTMTNMDPVDTATYYCARIESIGTTYSFDYWGQGTMVTVSSGGGGSGGGGSEVQLVESGGGLVQPGGSLRLSCAASGFSFSKYDMAWFRQAPGKGLEWVASITTSGVGTYYRDSVKGRFTVSRDNAKSTLYLQMNSLRAEDTAVYYCARGYGAMDAWGQGTTVTVSSASTKGPSVFPLAPSSKSTSGGTAALGCLVKDYFPEPVTVSWNSGALTSGVHTFPAVLQSSGLYSLSSVVTVPSSSLGTQTYICNVNHKPSNTKVDKKVEPKSCDKTHTCPPCPAPEAAGGPSVFLFPPKPKDTLMISRTPEVTCVVVDVSHEDPEVKFNWYVDGVEVHNAKTKPREEQYNSTYRVVSVLTVLHQDWLNGKEYKCKVSNKALPAPIEKTISKAKGQPREPQVYTLPPSREEMTKNQVSLTCLVKGFYPSDIAVEWESNGQPENNYKTTPPVLDSDGSFFLYSKLTVDKSRWQQGNVFSCSVMHEALHNAYTQKSLSLSPGK
light: EFVLTQSPGTLSLSPGERATLSCERSSGDIGDSYVSWYQQKPGQAPRLVIYADDQRPSGIPDRFSGSGSGTDFTLTISRLEPEDFAVYYCQSYDINIDIVFGGGTKVEIKGGSGGGGSGGDIQMTQSPSSLSASVGDRVTITCKASQDIDDYLSWYQQKPGKSPKLVIYAATRLADGVPSRFSGSGSGTDYTLTISSLQPEDFATYYCLQSSSTPWTFGGGTKVEIKRTVAAPSVFIFPPSDEQLKSGTASVVCLLNNFYPREAKVQWKVDNALQSGNSQESVTEQDSKDSTYSLSSTLTLSKADYEKHKVYACEVTHQGLSSPVTKSFNRGEC
B6: 9E8.4_GS_1E3.4 (bispecific antibody, human IgG1, kappa, L234A L235A)
heavy: B2 heavy with S103I, P105T, K106T
light: EFVLTQSPGTLSLSPGERATLSCERSSGDIGDSYVSWYQQKPGQAPRLVIYADDQRPSGIPDRFSGSGSGTDFTLTISRLEPEDFAVYYCQSYDINIDIVFGGGTKVEIKGGSGGGGSGGATQLTQSPSSLSASVGDRVTISCRASEGVYSYMHWYQQKPGKQPKLLIYKASNLASGVPSRFSGSGSGTDFTLTISSLQPEDFATYFCHQNWNDPLTFGQGTKLEIKRTVAAPSVFIFPPSDEQLKSGTASVVCLLNNFYPREAKVQWKVDNALQSGNSQESVTEQDSKDSTYSLSSTLTLSKADYEKHKVYACEVTHQGLSSPVTKSFNRGEC

target: recombinant human VEGF165 (human, UniProt P15692 207-395); assay: cell-based or functional assay
Sequence (P15692 other isoform, or with tags, fused parts or gaps limits assumed): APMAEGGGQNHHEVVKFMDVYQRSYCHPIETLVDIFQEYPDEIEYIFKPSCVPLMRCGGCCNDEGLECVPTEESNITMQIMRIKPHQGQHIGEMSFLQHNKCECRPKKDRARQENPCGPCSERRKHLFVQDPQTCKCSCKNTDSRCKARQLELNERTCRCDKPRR

| Binder | Potency IC50 (nM) HMVEC-d hVEGF165 [nM] |
| --- | --- |
| B1 | 0.082 |
| B2 | 0.372 |
| B3 | 0.073 |
| B4 | 0.132 |
| B5 | 0.391 |
| B6 | 0.897 |

target: recombinant human PDGF-BB (human, UniProt P01127 82-190); assay: cell-based or functional assay
Sequence (P01127 82-190 limits assumed): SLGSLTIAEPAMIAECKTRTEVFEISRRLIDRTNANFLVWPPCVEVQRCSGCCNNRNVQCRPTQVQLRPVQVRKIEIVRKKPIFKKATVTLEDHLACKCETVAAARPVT

| Binder | Potency IC50 (nM) NIH-3T3 hPDGF-BB [nM] |
| --- | --- |
| B1 | 0.037 |
| B2 | 0.039 |
| B3 | 0.317 |
| B4 | 0.213 |
| B5 | 0.109 |
| B6 | 0.131 |
